Values quoted from earlier work in PMC4048747.

Target: IGF-1R (UniProt P08069)
Sequence of UniProt P08069 (P08069 31-736, chain 1 of 2): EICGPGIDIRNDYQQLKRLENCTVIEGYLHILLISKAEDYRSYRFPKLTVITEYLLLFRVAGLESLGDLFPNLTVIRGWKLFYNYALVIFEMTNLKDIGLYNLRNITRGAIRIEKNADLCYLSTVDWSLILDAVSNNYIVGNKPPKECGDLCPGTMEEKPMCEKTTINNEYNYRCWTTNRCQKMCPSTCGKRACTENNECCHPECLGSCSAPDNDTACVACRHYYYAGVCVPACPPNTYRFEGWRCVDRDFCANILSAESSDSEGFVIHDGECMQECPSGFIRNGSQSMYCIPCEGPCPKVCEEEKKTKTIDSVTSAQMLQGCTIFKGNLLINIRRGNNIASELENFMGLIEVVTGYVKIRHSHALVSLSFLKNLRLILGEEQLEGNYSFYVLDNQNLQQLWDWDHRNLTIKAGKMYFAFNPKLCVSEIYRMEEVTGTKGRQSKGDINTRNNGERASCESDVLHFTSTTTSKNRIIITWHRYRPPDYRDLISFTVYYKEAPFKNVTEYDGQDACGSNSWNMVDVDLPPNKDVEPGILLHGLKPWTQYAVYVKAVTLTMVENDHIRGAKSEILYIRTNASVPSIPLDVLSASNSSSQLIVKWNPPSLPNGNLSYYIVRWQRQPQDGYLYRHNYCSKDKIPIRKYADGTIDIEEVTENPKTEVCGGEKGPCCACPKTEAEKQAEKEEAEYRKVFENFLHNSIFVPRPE
Sequence of UniProt P08069 (P08069 741-935, chain 2 of 2): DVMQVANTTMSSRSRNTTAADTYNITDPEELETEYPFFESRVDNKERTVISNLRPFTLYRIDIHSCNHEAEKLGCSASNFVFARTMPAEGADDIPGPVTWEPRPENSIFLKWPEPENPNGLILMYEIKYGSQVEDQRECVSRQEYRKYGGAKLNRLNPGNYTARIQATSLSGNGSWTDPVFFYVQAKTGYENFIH

Substance: Decorin (from UniProt P07585)
- Kd: 18 nM
